The values that follow come from patent US20200087416A1.

The target of experiment [1] is cynomolgus PCSK-9 (cynomolgus). As to the kind of experiment: BLI (ForteBio), IgG on AHQ sensor, 100 nM antigen. On the technique in general: BLI is a label-free optical method that tracks binding on a fibre tip over time.
In experiment [2] the target is human PCSK9 (PCSK9 antigen, SEQ ID NO. 53) (human). The experiment is described as follows: MSD-SET, Fab with biotin-PCSK9 in solution, IgG on plate, pH 6.0.
In experiment [3] the target is cynomolgus PCSK-9 (cynomolgus). The experiment is described as follows: MSD-SET, Fab with biotin-PCSK9 in solution, IgG on plate, pH 7.4.
Experiment [4] deals with human PCSK9 (PCSK9 antigen, SEQ ID NO. 53) (human). The experiment is described as above.
The target in a further experiment is murine PCSK-9 (murine) (UniProt Q80W65). The experiment is described as above.
The target in experiment [5] is human PCSK9 (PCSK9 antigen, SEQ ID NO. 53) (human). The experiment is described as follows: cell-based or functional assay.
The target is the same in experiment [6]. As to the kind of experiment: flow cytometry, PCSK9 left on CHO-LDLR cells (anti-His-FITC) after premix with 1 nM control IgG. In general terms: In flow cytometry, cells or beads pass a laser one at a time.
Experiment [7] shares this target. The experiment is described as follows: flow cytometry, PCSK9 left on CHO-LDLR cells (anti-His-FITC) after premix with 10 nM control IgG.
Experiment [8] shares this target. The experiment is described as follows: flow cytometry, PCSK9 left on CHO-LDLR cells (anti-His-FITC) after premix with 0.1 nM control IgG.
Experiment [9] has the same target. The experiment is described as follows: flow cytometry, PCSK9 left on CHO-LDLR cells (anti-His-FITC) after premix with 100 nM control IgG.
Experiment [10] shares this target. As to the kind of experiment: flow cytometry, PCSK9 left on CHO-LDLR cells (anti-His-FITC) after premix with 1000 nM control IgG.

In general, Kd refers to the concentration at which binding is half-saturated. A lower Kd goes with a tighter complex. Alirocumab (antibody) had a dissociation constant Kd in [1] of 383 pM.

Alirocumab Fab: the Kd in [2] came to 51 pM; in experiment [3], 82 pM; in [4], 72 pM; with murine PCSK-9 (murine) it was 300 pM.

Substance Bococizumab (antibody) displayed a dissociation constant (Kd) in [1] of 476 pM.

Consider Evolocumab (antibody), for which the Kd in [1] stood at 1300 pM.

In the case of Evolocumab Fab, the Kd in experiment [3] was 8.2 pM; in experiment [4], 16 pM.

In experiment [5], IgG (negative control) (antibody) registered a BODIPY-LDL uptake by HepG2 cells, fluorescence, 4.2 nM, replicate 1 of 0.358; a BODIPY-LDL uptake by HepG2 cells, fluorescence, 4.2 nM, replicate 2 of 0.325; a BODIPY-LDL uptake by HepG2 cells, fluorescence, 16.8 nM, replicate 1 of 0.297; a BODIPY-LDL uptake by HepG2 cells, fluorescence, 16.8 nM, replicate 2 of 0.309. For the same substance, in [5], the BODIPY-LDL uptake by HepG2 cells, fluorescence, 66.7 nM, replicate 1 worked out at 0.329 and the BODIPY-LDL uptake by HepG2 cells, fluorescence, 66.7 nM, replicate 2 was 0.288. Also, the Fluorescence Signal Value in experiment [6] is 6730. In [7], this substance showed a Fluorescence Signal Value of 6960. In experiment [8], the Fluorescence Signal Value amounted to 7000. This substance registered a Fluorescence Signal Value in experiment [9] of 7520. In [10], this substance showed a Fluorescence Signal Value of 8920.
